Measurements from paper PMC10442857, “Cellular Uptake of a Fluorescent Ligand Reveals Ghrelin O-Acyltransferase Interacts with Extracellular Peptides and Exhibits Unexpected Localization for a Secretory Pathway Enzyme” (ACS Chemical Biology, 2023).
Peptide text beside a SMILES is read from it.

Legend:
[1] = molecular target: human ghrelin O-acyltransferase (hGOAT) of the hGOAT inhibition assays (human) (UniProt Q96T53)
GHSR (GHS-R1a) = molecular target: T1, GHSR (GHS-R1a) (Homo sapiens, UniProt Q92847); test: biochemical; format: binding; details: lower limit from test at 100 µM; read-out: IC50 against GHSR
T1 construct: expressed in transfected cells; host or cells: HEK 293 cells transfected with GHS-R1a (membrane suspension)
Description: Peptide binding affinity for the ghrelin receptor was determined using a competitive radioligand-displacement binding assay,[22] with details provided in the Supporting Information. […]
GHSR receptor binding assays. Peptide binding affinity for the ghrelin receptor was determined using a competitive radioligand-displacement binding assay.1 Assays were performed using GHS-R1a transfected HEK 293 cells as the receptor source and human His[125I]-ghrelin(1−28) (PerkinElmer Inc. NEX388010UC ) as the radioligand. Human ghrelin(1−28) was used as a reference to ensure the validity of the results. A suspension of membrane from HEK 293/GHS-R1a cells (100,000 cells per assay tube) were incubated with ghrelin(1−8) peptide analogues (at […]
ghrelin (15 pM per assay tube) in binding buffer (25 mM HEPES, 5 mM magnesium chloride, 1 mM calcium chloride, 2.5 mM EDTA, and 0.4% BSA, pH 7.4). The resulting suspension was incubated for 20 min under shaking (550 rpm) at 37 °C. Unbound [ 125I]-ghrelin was removed and the amount of [ 125I]-ghrelin bound to the membranes was measured by γ counter. IC 50 values were determined by nonlinear regression analysis to fit a four-parameter dose−response curve using Prism 6 (version 6.0c). All binding assays were performed in triplicate. […]

22Rv1 cells = test: GOAT ligand labeling and imaging in 22Rv1 prostate cancer cells; format: cell-based, human; details: 5 μM ligand 15 with 40 μM ligand 12, 30 min RT, p < 0.05
Description: Prostate cancer (PCa) cells LNCaP (ATCC, CRL-1740) and 22Rv1 (ATCC, CRL-2505) were maintained in a 75 mL vented tissue culture flask (Celltreat) at 37 °C with 5% CO2 in complete 1× RPMI (Roswell Park Memorial Institute) media supplemented with 10% FBS and 1% (v/v) penicillin-streptomycin (Mediatech). Cell lines were passaged upon reaching 70% confluency (∼2–3 days). For microscopy studies, PCa cells were plated in 2 mL of complete 1× RPMI in a six-well plate (Corning) containing sterile 12 mm poly-L-lysine coated glass coverslips (Neuvitro, GG-12-PDL) in each well. The cells were allowed to adhere and reach 70% confluence on the coverslips prior to labeling.
Upon reaching confluency, coverslips with attached PCa cells were treated with ligands at the indicated concentration for 30 min at RT (unless otherwise stated). Cells were washed 3× with 1× phosphate-buffered saline (PBS) (Cellgro) and then fixed for immunofluorescence staining as described above. For ligand competition experiments, cells were incubated with 5 μM ligand 15 alone, 5 μM ligand 15 with 40 μM ligand 12, or PBS alone for 30 min at RT. […]
The fluorescence range of intensity was adjusted identically for each image series. […] Total cell fluorescence was determined by calculating the integrated density of mean gray value in a cell area compared to background as shown in eqs 4 and 5. […]

[2] = molecular target: T2, human ghrelin O-acyltransferase (hGOAT) of the hGOAT inhibition assays (human, UniProt Q96T53 1-435); test: cell-based or functional assay
T2 sequence (looked up): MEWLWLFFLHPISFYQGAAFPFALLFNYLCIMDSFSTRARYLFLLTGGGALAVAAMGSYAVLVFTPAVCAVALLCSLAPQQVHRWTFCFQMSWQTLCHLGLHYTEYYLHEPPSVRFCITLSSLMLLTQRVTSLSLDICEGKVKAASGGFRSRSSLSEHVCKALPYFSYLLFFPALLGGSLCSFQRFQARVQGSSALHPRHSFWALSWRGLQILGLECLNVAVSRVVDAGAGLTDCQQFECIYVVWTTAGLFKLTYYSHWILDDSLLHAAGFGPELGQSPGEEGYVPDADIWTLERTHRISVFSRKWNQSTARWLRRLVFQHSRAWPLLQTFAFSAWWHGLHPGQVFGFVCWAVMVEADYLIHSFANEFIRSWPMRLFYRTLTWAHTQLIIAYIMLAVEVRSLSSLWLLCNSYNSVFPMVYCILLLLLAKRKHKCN

ligand 15, H-GS-Dap-Nal-1-LSPTK(SulfoCy5)-NH2 (peptide)
inhibition of hGOAT activity by ligand 15 (IC50) [1]: 17 nM

CC(C)C[C@H](NC(=O)[C@H](Cc1cccc2ccccc12)NC(=O)[C@H](CN)NC(=O)[C@H](CO)NC(=O)CN)C(=O)N[C@@H](CO)C(=O)N1CCC[C@H]1C(=O)N[C@H](C(N)=O)[C@@H](C)O [ligand 12, H-GS-Dap-Nal-1-LSPT-NH2] (HELM PEPTIDE1{G.S.[NC[C@H](N[*:1])C(=O)[*:2]].[O=C([C@H](Cc1cccc2ccccc12)N[*:1])[*:2]].L.S.P.T.[am]}$$$$V2.0)
IC50 (GHSR (GHS-R1a)): ≥ 100000 nM | effect of unlabeled competitor on ligand 15 internalization (total cell fluorescence) (22Rv1 cells): significant reduction of ligand 15 internalization

B1: ligand 12, H-GS-Dap-Nal-1-LSPT-NH2 (peptide)
chain: GSXXLSPT
HELM: PEPTIDE1{G.S.[NC[C@H](N[*:1])C(=O)[*:2]].[O=C([C@H](Cc1cccc2ccccc12)N[*:1])[*:2]].L.S.P.T.[am]}$$$$V2.0
SMILES: CC(C)C[C@H](NC(=O)[C@H](Cc1cccc2ccccc12)NC(=O)[C@H](CN)NC(=O)[C@H](CO)NC(=O)CN)C(=O)N[C@@H](CO)C(=O)N1CCC[C@H]1C(=O)N[C@H](C(N)=O)[C@@H](C)O
inhibition of hGOAT activity (IC50 against hGOAT) [2]: 6 nM

B2: ligand 5, H-Inp-S-Dap-FLSPY-NH2 (peptide)
chain: XSXFLSPY
HELM: PEPTIDE1{[O=C(C1CCNCC1)[*:2]].S.[NC[C@H](N[*:1])C(=O)[*:2]].F.L.S.P.Y.[am]}$$$$V2.0
SMILES: CC(C)C[C@H](NC(=O)[C@H](Cc1ccccc1)NC(=O)[C@H](CN)NC(=O)[C@H](CO)NC(=O)C1CCNCC1)C(=O)N[C@@H](CO)C(=O)N1CCC[C@H]1C(=O)N[C@@H](Cc1ccc(O)cc1)C(N)=O
inhibition of hGOAT activity (IC50 against hGOAT) [2]: > 100000 nM
